Assay results as given in article PMC5201011 (2016).

B1: GST–Tks5-PX [not stated] / FLAG–Rab40b [not stated] (parent complex)
chain 1: YCVQDATVVDVEKRRNPSKHYVYIINVTWSDSTSQTIYRRYSKFFDLQMQLLDKFPIEGGQKDPKQRIIPFLPGKILFRRSHIRDVAVKRLKPIDEYCRALVRLPPHISQCDEVFRFFEARPEDV
chain 2: MSALGSPVRAYDFLLKFLLVGDSDVGKGEILASLQDGAAESPYGHPAGIDYKTTTILLDGRRVKLQLWDTSGQGRFCTIFRSYSRGAQGVILVYDIANRWSFDGIDRWIKEIDEHAPGVPKILVGNRLHLAFKRQVPTEQAQAYAERLGVTFFEVSPLCNFNITESFTELARIVLLRHGMDRLWRPSKVLSLQDLCCRAVVSCTPVHLVDKLPLPIALRSHLKSFSMANGLNARMMHGGSYSLTTSSTHKRSSLRKVKLVRPPQSPPKNCTRNSCKIS

Variants of: B1
Assay: glutathione bead pulldown, quantified immunoblot; three independent experiments; parent: 1; read off a plot

response | Variant
~0.86 Arbitrary Units | chain 1 I24A
~0.57 Arbitrary Units | chain 1 Y21A
